Reference: patent US20260070975A1

Key:
[1] = target: c-Kit expressed on the cell surface of M-07e cells (human) (UniProt P10721)
[2] = target: c-Kit expressed on the cell surface of M-07e cells (human) (UniProt P10721); experiment: cell-based or functional assay

Sequence of c-Kit expressed on the cell surface of M-07e cells (human) (P10721 26-976): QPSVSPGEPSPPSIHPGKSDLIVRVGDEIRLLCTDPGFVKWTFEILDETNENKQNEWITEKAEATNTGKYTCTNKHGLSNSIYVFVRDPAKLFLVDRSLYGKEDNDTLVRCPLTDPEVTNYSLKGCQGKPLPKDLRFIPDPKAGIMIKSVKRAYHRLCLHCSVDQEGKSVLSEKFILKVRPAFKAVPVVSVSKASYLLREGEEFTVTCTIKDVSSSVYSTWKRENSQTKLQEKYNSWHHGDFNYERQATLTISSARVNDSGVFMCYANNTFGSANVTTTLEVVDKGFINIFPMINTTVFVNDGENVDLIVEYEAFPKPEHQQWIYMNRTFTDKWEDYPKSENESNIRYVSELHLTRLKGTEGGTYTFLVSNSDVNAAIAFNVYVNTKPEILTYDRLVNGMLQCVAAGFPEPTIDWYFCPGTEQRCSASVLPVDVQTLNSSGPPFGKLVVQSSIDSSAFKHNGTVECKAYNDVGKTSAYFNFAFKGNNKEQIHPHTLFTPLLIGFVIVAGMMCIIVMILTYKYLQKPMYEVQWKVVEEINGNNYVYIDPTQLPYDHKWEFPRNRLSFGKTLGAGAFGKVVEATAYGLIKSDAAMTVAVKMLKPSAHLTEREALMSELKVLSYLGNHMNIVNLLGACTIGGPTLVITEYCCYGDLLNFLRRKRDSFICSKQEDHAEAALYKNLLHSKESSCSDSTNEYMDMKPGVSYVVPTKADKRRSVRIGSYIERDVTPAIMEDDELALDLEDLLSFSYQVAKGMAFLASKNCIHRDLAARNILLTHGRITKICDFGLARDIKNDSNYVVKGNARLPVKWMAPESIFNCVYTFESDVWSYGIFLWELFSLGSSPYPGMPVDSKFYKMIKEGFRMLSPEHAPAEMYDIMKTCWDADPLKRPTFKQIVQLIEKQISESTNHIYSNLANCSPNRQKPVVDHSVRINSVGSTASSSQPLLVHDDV

IC50 (read off the curve) [1]: 0.1 to 0.2 nM | IC50, inhibition of SCF-dependent proliferation of M-07e cells [2]: 0.408 nM
B1: CDX-0159 (antibody, INN chains, looked up, V domains shown)
VH: QVQLVQSGAEVKKPGASVKLSCKASGYTFTDYYINWVRQAPGKGLEWIARIYPGSGNTYYNEKFKGRATLTADKSTSTAYMQLSSLRSEDTAVYFCARGVYYFDYWGQGTTVTVSS
VL: DIVMTQSPSSLSASVGDRVTITCKASQNVRTNVAWYQQKPGKAPKALIYSASYRYSGVPDRFTGSGSGTDFTLTISSLQPEDFADYFCQQYNSYPRTFGGGTKVEIK
